In patent publication CN113321729A (DONGDA BIOTECHNOLOGY SUZHOU CO LTD, dated 2021):

T1: 携带组氨酸标签的人IL-12(IL-12-His) (human, UniProt P29459 23-219; P29460 23-328)
T1 construct: Recombinant His-tagged human IL-12 made in mammalian cells; Coated on the plate in the ELISA; also called IL-12蛋白; biotin标记的IL-12-His
T1 sequence (looked up) 1: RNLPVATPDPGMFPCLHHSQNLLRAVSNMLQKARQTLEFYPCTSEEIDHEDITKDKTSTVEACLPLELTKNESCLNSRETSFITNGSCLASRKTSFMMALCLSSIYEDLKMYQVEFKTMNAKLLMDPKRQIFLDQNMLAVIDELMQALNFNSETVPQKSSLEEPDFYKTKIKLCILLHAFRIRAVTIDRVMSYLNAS
T1 sequence (looked up) 2: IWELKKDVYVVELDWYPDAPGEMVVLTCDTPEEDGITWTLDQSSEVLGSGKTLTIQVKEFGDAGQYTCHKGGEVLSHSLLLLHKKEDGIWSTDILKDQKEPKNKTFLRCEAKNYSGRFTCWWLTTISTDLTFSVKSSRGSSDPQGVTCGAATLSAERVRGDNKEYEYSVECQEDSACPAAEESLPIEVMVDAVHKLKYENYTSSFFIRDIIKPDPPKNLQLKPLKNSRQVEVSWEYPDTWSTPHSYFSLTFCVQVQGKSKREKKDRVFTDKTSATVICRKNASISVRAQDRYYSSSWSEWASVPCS

B1: hu2A3 (antibody, V domains shown)
VH: QVQLVQSGAEVKKPGASVKVSCKASGFNIKDTYMHWVRQAPGQRLEWIGKIDPANGNTKYDPKFQGRATITADTSASTAYMELSSLRSEDTAVYYCSRRFYDSGFYYYFYIWGQGTLVTVSS
VL: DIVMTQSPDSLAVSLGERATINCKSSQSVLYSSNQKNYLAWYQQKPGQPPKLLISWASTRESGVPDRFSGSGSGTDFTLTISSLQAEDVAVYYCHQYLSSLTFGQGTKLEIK
notes: also called 2A3人源化抗体; 人源化抗体2A3
B2: hu11B4 (antibody, V domains shown)
VH: QVQLVQSGAEVKKPGASVKVSCKASGYAFTDYKMHWVRQAPGQRLEWIGHIYTYNGGADYNQKFKNRATLTVDISASTAYMELSSLRSEDTAVYYCATSGPFAYWGQGTLVTVSS
VL: EIVMTQSPATLSVSPGERATLSCKASQNVGTNVAWYQQKPGQAPRALIYSASKRFSGIPARFSGSGSGTEFTLTISSLQSEDFAVYYCLQYNNFPFTFGQGTKLEIK
notes: also called 11B4人源化抗体; 人源化抗体11B4
B3: Ustekinumab (antibody, V domains shown)
VH: EVQLVQSGAEVKKPGESLKISCKGSGYSFTTYWLGWVRQMPGKGLDWIGIMSPVDSDIRYSPSFQGQVTMSVDKSITTAYLQWNSLKASDTAMYYCARRRPGQGYFDFWGQGTLVTVSS
VL: DIQMTQSPSSLSASVGDRVTITCRASQGISSWLAWYQQKPEKAPKSLIYAASSLQSGVPSRFSGSGSGTDFTLTISSLQPEDFATYYCQQYNIYPYTFGQGTKLEIK
B4: 2A3 (antibody, V domains shown)
VH: EVQLQQSGAELVKPGASVKLSCTASGFNIKDTYMHWLKQRPEQGLEWIGKIDPANGNTKYDPKFQGKATITADTSSNTAYLQLSSLTSEDTAVYYCSRRFYDSGFYYYFYIWGAGTTVTVSS
VL: NIMMTQSPSSLAVSAGEKVTMYCKSSQSVLYSSNQKNYLAWYQQKPGQSPKLLISWASTRESGVPDRFTGSGSGTDFTLTISSVQAEDLAVYYCHQYLSSLTFGAGTKLELK
notes: Mouse hybridoma antibody purified on Protein A; also called IL-12杂交瘤抗体
B5: 19A4 (antibody, V domains shown)
VH: EVQLVESGGGLVKPGGSLQVSCAASGFSFSSYGMSWVRQTPDKRLEWVATIGSGGLYTYSPDTVKGRFSISRDDAKNTLYLQMNSLTSEDTAMYYCATSGPFAYWGQGTLVTVSA
VL: DIKMTQSPSSMYASLGERVTITCKASQDINRNLNWFQQKPGNSPKTLIIRTNRLVDGVPSRFSGSGSGQVYSLTVSSLEFGDMGIYFCLQFDEFPWTFGGGTTLEIK
notes: as for B4
B6: 1B6 (antibody, V domains shown)
VH: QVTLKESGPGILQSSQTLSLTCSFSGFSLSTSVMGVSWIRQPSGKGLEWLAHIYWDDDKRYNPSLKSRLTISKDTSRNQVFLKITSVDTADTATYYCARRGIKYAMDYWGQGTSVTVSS
VL: NIVMTQTPKFLLVSAGDRVTITCKASQSVSNDVAWYQQKPGQSPKLLIYYASNRYTGVPDRFTGSGYGTDFTFTISTVQAEDLAVYFCQQDYTSPWTFGGGTKLEIK
notes: as for B4
B7: 9E2 (antibody, V domains shown)
VH: EVQLQQSGAELVRPGASVKLSCTASGVNIKDYYMHWVKQRPEKGLEWIGMIDPEDGDTEYAPRFQAKATMTADTSSNTAYLQLNSLTSEDTAVYYCTITTVVRYFDVWGTGTTVRVSS
VL: DLVLSQSPATLSVTPGDSVSLSCRASQSISINLHWYQQKSHESPRLLIKYASQSISGIPSRFSGSGSGTDFTLSINSVETEDFGMYFCQQSNSWPFTFGGGTKLEIK
notes: as for B4

molecular target: T1, 携带组氨酸标签的人IL-12(IL-12-His); assay: FACS, blocking of biotin-labelled IL-12-His binding to CHO-IL-12R cells

IC50 | Binder
0.398 µg/mL | B1
0.323 µg/mL | B2
0.224 µg/mL | B3

molecular target: T1, 携带组氨酸标签的人IL-12(IL-12-His); assay: ELISA, IL-12-His coated on plate

binding result | Binder
binds | B4
binds | B5
binds | B6
binds | B7

molecular target: T1, 携带组氨酸标签的人IL-12(IL-12-His); assay: ELISA, IL-12-His coated on plate; remark: another data set of the same source

EC50 | Binder
0.0571 µg/mL | B1
0.0517 µg/mL | B2
0.0718 µg/mL | B3
